Experimental data taken from paper PMC6989304.

Biological target: Pinhead-HA (secreted, in conditioned medium of HEK293T cells) (zebrafish)
Test: reducing and non-reducing SDS-PAGE with immunoblot

Pinhead-HA (secreted, in conditioned medium of HEK293T cells) (ligand)
stoichiometry N: 2
